Laboratory results reported in doi:10.1101/2024.10.06.616194.

Legend:
[1] = target: GpeC Y163A
[2] = target: GpeC R160A
[3] = target: GpeC R152A
[4] = target: GpeC F214A

Measured: catalytic (cyclization) activity of the GpeC mutant relative to the wild type

B1: SGpeA2 (minimal 9-mer substrate) (peptide)
peptide: WFWMLYHHM
> 50%: all assays above
